Reference: patent US20250215092A1 (ZHEJIANG NANOMAB TECHNOLOGY CENTER, published 2025)
Residue numbers refer to the chain shown, from its start.

B1: E008.1 (VHH)
VHH: EVQLVESGGGLVQPGGSLRLSCAASGLPLLDYAIGWFRQAPGKEREAVSAISISEGSTYYTDSVRGRFTISRDNSKNTVYLQMNSLRAEDTAVYYCAADKTDIGFWLLVGGAGGGEVRYEYWGQGTQVTVSS
notes: Humanized VHH; also called humanized variant of E008
B2: E008.6 (VHH)
VHH: B1 VHH with S75N, T78K
notes: as for B1
B3: E008.5 (VHH)
VHH: B1 VHH with T78K
notes: as for B1
B4: E008.10 (VHH)
VHH: B1 VHH with A24S, T78K, Q82R
notes: as for B1
B5: E008.4 (VHH)
VHH: B1 VHH with S75N
notes: as for B1
B6: E008.2 (VHH)
VHH: B1 VHH with T78K, V79L
notes: as for B1
B7: E008.9 (VHH)
VHH: B1 VHH with R45L, S75N, T78K
notes: as for B1
B8: E008.3 (VHH)
VHH: B1 VHH with Q82R
notes: as for B1
B9: E005.1 (VHH)
VHH: QVQLVESGGGLVKPGGSLRLSCAASGFAFSDYTMRWHRQAAGKELELVSYITSAGDIIKYANSVRGRFTISRDNAKNTLYLQMNSLRAEDTAVYRCNALVSASVRASDYWGQGTLVTVSS
notes: Humanized VHH; also called humanized variant of E005
B10: E005.4 (VHH)
VHH: B9 VHH with A41P, T78S
notes: as for B9
B11: E005.5 (VHH)
VHH: B9 VHH with A41P, S49A
notes: as for B9
B12: E005.6 (VHH)
VHH: B9 VHH with S49A, T52S
notes: as for B9
B13: E005.7 (VHH)
VHH: B9 VHH with A41P, S49A, T78S
notes: as for B9
B14: E005.2 (VHH)
VHH: B9 VHH with S49A, T78S
notes: as for B9
B15: E005.8 (VHH)
VHH: B9 VHH with A23E, S49A
notes: as for B9
B16: E005.3 (VHH)
VHH: B9 VHH with S49A
notes: as for B9
B17: E002.1 (VHH)
VHH: EVQLVESGGGLVQPGGSLRLSCAASGFTFSDYAVSWYRQAPGKEREFVSRITGTGETSRYEDSVKGRFTISRDNSKNTAYLQMNSLRAEDTAVYYCSIYHPPRDYWGQGTQVTVSS
notes: Humanized VHH; also called humanized variant of E002
B18: E002.6 (VHH)
VHH: B17 VHH with S49A, T69A
notes: as for B17
B19: E002.4 (VHH)
VHH: B17 VHH with S49A
notes: as for B17
B20: E002.7 (VHH)
VHH: B17 VHH with S49A, T69A, S75V
notes: as for B17
B21: E002.5 (VHH)
VHH: B17 VHH with S49A, S75V
notes: as for B17
B22: E002.2 (VHH)
VHH: B17 VHH with S75V
notes: as for B17
B23: E006.1 (VHH)
VHH: EVQLVESGGGLVQPGGSLRLSCAASGFTFDTYTTSWERQAPGKEREMVAVLATTGGKPYYVESVKGRFTISRDNSKNTVYLQMNSLRAEDTAVYYCKATSRSPVNPHNYSGQGTLVTVSS
notes: Humanized VHH; also called humanized variant of E006
B24: E006.5 (VHH)
VHH: B23 VHH with N74A, K76E, T78A, S85N
notes: as for B23
B25: E006.2 (VHH)
VHH: B23 VHH with N74A
notes: as for B23
B26: E006.4 (VHH)
VHH: B23 VHH with N74A, K76E, T78A
notes: as for B23
B27: E006.6 (VHH)
VHH: B23 VHH with N74A, K76E, T78A, Y80T, S85N
notes: as for B23
B28: E006.7 (VHH)
VHH: B23 VHH with A49S, N74A, K76E, T78A
notes: as for B23
B29: E006.3 (VHH)
VHH: B23 VHH with N74A, K76E
notes: as for B23
B30: E006.8 (VHH)
VHH: B23 VHH with A23T, A49S, N74A, K76E, T78A, Y80T
notes: as for B23

Target: T1, human EGFR.His antigen (Acro, Cat #EGR-H522a) (human, UniProt P00533 25-645)
T1 construct: extracellular domain; Bought protein; also called EGFR his tag protein; full-length EGFR extracellular domain protein; not shown: His tag
Assay: SPR, human EGFR.His

Row | Kd [nM] | koff [s⁻¹] | kon [M⁻¹ s⁻¹] | Binder
1 | 18 | 0.0087 | 480000 | B1
2 | 32 | 0.013 | 430000 | B2
3 | 24 | 0.012 | 510000 | B3
4 | 82 | 0.029 | 360000 | B4
5 | 21 | 0.0093 | 450000 | B5
6 | 40 | 0.021 | 540000 | B6
7 | 25 | 0.012 | 490000 | B7
8 | 5.8 | 0.028 | 4.9e+06 | B8
9 | 3.3 | 3.5e-05 | 11000 | B9
10 | 4.8 | 9.6e-06 | 2000 | B10
11 | 0.74 | 1.1e-05 | 15000 | B11
12 | 2.5 | 4.1e-05 | 16000 | B12
13 | 0.71 | 2.5e-06 | 3500 | B13
14 | 1.2 | 2.1e-05 | 18000 | B14
15 | 2.1 | 2.7e-05 | 13000 | B15
16 | 2.7 | 1.7e-05 | 6100 | B16
17 | 5 | 0.00039 | 78000 | B17
18 | 9.4 | 0.00038 | 40000 | B18
19 | 11 | 0.00045 | 43000 | B19
20 | 11 | 0.00046 | 40000 | B20
21 | 13 | 0.00055 | 43000 | B21
22 | 5.1 | 0.00068 | 130000 | B22
23 | 39 | 0.00079 | 20000 | B23
24 | 13 | 0.00031 | 24000 | B24
25 | 41 | 0.00072 | 17000 | B25
26 | 13 | 0.00032 | 25000 | B26
27 | 11 | 0.00032 | 29000 | B27
28 | 14 | 0.00033 | 24000 | B28
29 | 18 | 0.0004 | 22000 | B29
30 | 15 | 0.0004 | 27000 | B30
